± gives the uncertainty stated by the source.
Experiment: self-splicing fitness, log relative to wild type (ln ratio); higher = more splicing; Tetrahymena group I intron in knt gene, E. coli kanamycin selection, DiMSum; sequences stand for … in CUCUCU…GGAGGGAAAAGUUAUCAGGCAUGCACCUGGUAGCUAGUCUUUAAACCAAUAGAUUGCAUCGGUUUAAAAGGCAAGACCGUCAAAUUGCGGGAAAGGGGUCAACAGCCGUUCAGUACCAAGUCUCAGGGGAAACUUUGAGAUGGCCUUGCAAAGGGUAUGGUAAUAAGCUGACGGACAUGGUCCUAACCACGCAGCCAAGUCCUAAGUCAACAGAUCUUCUGUUGAUAUGGAUGCAGUUCACAGACUAAAUGUCGGUCGGGGAAGAUGUAUUCUUCUCAUAAGAUAUAGUCGGACCUCUCCUUAAUGGGAGCUAGCGGAUGAAGUGAUGCAACACUGGAGCCGCUGGGAACUAAUUUGUAUGCGAAAGUAUAUUGAUUAGUUUUGGAGUACUCGUGGUCG
Method in brief: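 Six replicate transformations of E. coli BL21(DE3) with a pET-22b(+) library were grown overnight at 37°C or 30°C. The library randomised all eight P1ex-region intron nucleotides, the intron lying in the knt kanamycin-resistance gene, and plates were LB agar with or without 25 μg/mL kanamycin plus 100 μg/mL carbenicillin, 50 μM IPTG and 0.2% rhamnose. Pooled colonies were amplicon-sequenced on an Illumina HiSeq 2500, and fitness is the DiMSum error-weighted combination of wild-type-normalised replicate fold changes, kanamycin versus none.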

Sequence	self-splicing fitness (ln) (30 °C)	self-splicing fitness (ln) (37 °C)
UGUAAGCAAUAUUACGGAGU	-2.24 ± 0.22	-1.58 ± 0.33
UGUAAGCAAUAUUACGGAUA	-1.38 ± 0.11	-1.27 ± 0.12
UGUAAGCAAUAUUACGGAUC	-1.45 ± 0.18	-0.457 ± 0.36
UGUAAGCAAUAUUACGGCAA	-0.056 ± 0.1	0.0443 ± 0.12
UGUAAGCAAUAUUACGGCUG	0.2 ± 0.1	-0.152 ± 0.11
UGUAAGCAAUAUUACGGGAA	-2.12 ± 0.17	-2.08 ± 0.18
UGUAAGCAAUAUUACGGGAG	-3.47 ± 0.24	-1.94 ± 0.25
UGUAAGCAAUAUUACGGGGC	-3.63 ± 0.23	-3.24 ± 0.25
UGUAAGCAAUAUUACGGUAG	-2.05 ± 0.12	-1.34 ± 0.13
UGUAAGCAAUAUUACGGUGA	-2.08 ± 0.11	-0.909 ± 0.13
UGUAAGCAAUAUUACGGUGG	-3.54 ± 0.19	-1.27 ± 0.13
UGUAAGCAAUAUUACGUAUC	-3.17 ± 0.23	-2.13 ± 0.24
UGUAAGCAAUAUUACGUCAA	-2.57 ± 0.18	-0.839 ± 0.16
UGUAAGCAAUAUUACGUCGA	-1.42 ± 0.1	-0.213 ± 0.12
UGUAAGCAAUAUUACGUCGC	-3.46 ± 0.33	-1.65 ± 0.2
UGUAAGCAAUAUUACGUGGU	-3.15 ± 0.13	-3.76 ± 0.27
UGUCAGCAAUAUUACGAACG	-0.137 ± 0.086	0.589 ± 0.11
UGUCAGCAAUAUUACGAGCC	-1.74 ± 0.24	-0.631 ± 0.27
UGUCAGCAAUAUUACGAGCU	-0.801 ± 0.088	-0.417 ± 0.11
UGUCAGCAAUAUUACGAUAC	-2.92 ± 0.24	-2.41 ± 0.22
UGUCAGCAAUAUUACGAUCG	0.238 ± 0.098	0.647 ± 0.12
UGUCAGCAAUAUUACGAUGA	0.232 ± 0.075	0.333 ± 0.09
UGUCAGCAAUAUUACGAUGG	-0.3 ± 0.073	0.195 ± 0.098
UGUCAGCAAUAUUACGAUGU	-1.36 ± 0.073	-0.317 ± 0.093

Sequence	self-splicing fitness (ln) (30 °C)	self-splicing fitness (ln) (37 °C)
UGUCAGCAAUAUUACGCAGG	-2.52 ± 0.2	-3.19 ± 0.26
UGUCAGCAAUAUUACGCAUC	-2.61 ± 0.12	-1.57 ± 0.11
UGUCAGCAAUAUUACGCCUU	-1.38 ± 0.13	-0.87 ± 0.14
UGUCAGCAAUAUUACGCGCU	-0.874 ± 0.17	-0.182 ± 0.17
UGUCAGCAAUAUUACGGACU	-1.36 ± 0.12	0.712 ± 0.13
UGUCAGCAAUAUUACGGAGC	–	-2.89 ± 0.43
UGUCAGCAAUAUUACGUAAA	-0.534 ± 0.13	-0.324 ± 0.16
UGUCAGCAAUAUUACGUAAC	-2.38 ± 0.24	0.145 ± 0.26
UGUCAGCAAUAUUACGUGGG	-1.94 ± 0.073	-0.96 ± 0.082
UGUCAGCAAUAUUACGUGUG	-0.636 ± 0.048	0.0859 ± 0.065
UGUGAGCAAUAUUACGACGU	-3.72 ± 0.18	-2.29 ± 0.16
UGUGAGCAAUAUUACGACUA	-0.569 ± 0.2	-1.07 ± 0.19
UGUGAGCAAUAUUACGAGAU	-3.75 ± 0.37	-2.53 ± 0.41
UGUGAGCAAUAUUACGAUCC	-2.29 ± 0.31	-1.87 ± 0.39
UGUGAGCAAUAUUACGCACU	-2.44 ± 0.16	-0.665 ± 0.12
UGUGAGCAAUAUUACGCAGA	-2.79 ± 0.29	-1.83 ± 0.48
UGUGAGCAAUAUUACGCAUC	–	-2.15 ± 0.26
UGUGAGCAAUAUUACGCAUU	-4.49 ± 0.29	-1.77 ± 0.3
UGUGAGCAAUAUUACGCUUU	-3.5 ± 0.33	-3.83 ± 0.33
UGUGAGCAAUAUUACGGACU	-2.24 ± 0.22	-0.378 ± 0.22
UGUGAGCAAUAUUACGGCCG	-0.763 ± 0.15	0.477 ± 0.27
UGUGAGCAAUAUUACGGCGG	-2.35 ± 0.2	-0.738 ± 0.19
UGUGAGCAAUAUUACGGCGU	-3.33 ± 0.3	-1.92 ± 0.32

From the supplement of paper PMC7877785
